The target of this test is human platelet integrin αIIbβ3 (human), P08514. The experiment in a line: competition ELISA: integrin αIIbβ3 coated, 10 nM human Fg added with varying peptide, bound Fg detected with anti-Fg antibodies/HRP. On the technique in general: An ELISA detects its analyte on a solid surface through an enzyme-linked reagent.

The molecule GQQHHLGGAKQAGDV (modifications not checked) [human 15-mer C-terminal Fg γ-chain peptide (…)] had an IC50 (read off the curve) of 10 µM.

The values above are taken from patent publication US20110171285A1, “Design of Fibrinogen and Fibrinogen Derived Products with Reduced Bacterial Binding by Using Modified Sequences of Fibrinogen Chains” (priority 2009, published 2011).
